Assay: Conversion of cyclohexanone to caprolactone by E. coli clones expressing Rhodococcus erythropolis AN12 monooxygenases, GC-MS detection
Type: cell-based, Escherichia coli
Settings: 500 mg/L cyclohexanone, 0.1 mM IPTG, overnight at 24° C., GC-MS of ethylacetate extract
Experimental: Following amplification, the gene fragments were cloned into pTrcHis-TOPO TA vectors with either an N-terminal tail or C-terminal tail, as provided by the vector sequence. These vectors were transformed into E. coli, with transformants grown in Luria-Bertani broth supplemented with ampicillin (100 ug/ml).
The chnB monooxygenase activity of each expressed enzyme from Example 9 was tested for activity according to its ability to convert cyclohexanone to caprolactone.
Clones containing the full length monooxygenase genes were transferred from LB agar plate to 5 mL of M63 minimal media (GIBCO) containing 10 mM glycerol, 50 ug/mL ampicillin, 0.1 mM IPTG, and 500 mg/L cyclohexanone. In addition to the clones containing full length monooxygenases, a plasmid without an insert and a “no cell” control were also assayed. The encoded monooxygenase sequences were expressed upon addition of IPTG to the culture media. The cultures were incubated overnight at room temperature (24° C.). Samples (1.25 mL) for analysis were taken immediately after inoculation and after overnight incubation; cells were removed by centrifugation (4° C., 13,000 rpm).
Caprolactone formed by the action of the cloned monooxygenase was extracted from the aqueous phase with ethylacetate (1.0 ml aqueous/0.5 mL ethylacetate). Caprolactone was detected by gas chromotagraphy mass spectrometry (GC-MS) analysis, using an Agilent 6890 Gas chromatograph system.
The analysis of the ethylacetate phase was performed by injecting 1 uL of the ethyl acetate phase into the GC. The inlet temperature was 115° C. and the column temperature profile was 50° C. for 4 min and ramped to 250° C. at 20° C./min, for a total run time of 14 min. The compounds were separated with an Hewlet Packard HP-5MS (5% phenyl Methyl Siloxane) column (30 m length, 250 um diameter, and 0.25 um film thickness). The mass spectrometer was run in Electron Ionization mode. The background mass spectra was subtracted from the spectra at the retention time of caprolactone (9.857 min). Presence of caprolactone was confirmed by comparison of the test reactions to an authentic standard obtained from Aldrich Chemical Company (St. Louis, Mo.).
Results of these assays are shown below in Table 7, in terms of the presence or absence of detectable caprolactone formation according to the activity of each expressed BV monooxygenase enzyme.

B1: ORF 15: Rhodococcus erythropolis AN12 ORF 15 chnB monooxygenase, protein SEQ ID NO:36, expressed in E. coli (protein)
chain: MTIVTDLDRDHLRSAVLRGNVPTMLAVLLELTADERWVAPRYQPTRSRGMDDNSTGGLPEEVQSEIRSALIDAVERWWTLDEPSRRTLDSSEVERILNFTCSETVPPDFAPMMAEIVNGPQIKPATAKCDERLHAIVIGAGIAGMLASVELSRAGIPHVILEKNDDVGGSWWENRYPGAGVDTPSHLYSISSFPRNWSTHFGKRDEVQGYLEDFAEANDIRRNVRFRHEVTRAEFEESKQSWRVSVQRPGEASETLEAPILISAVGLLNRPKIPHLPGIETFRGRLFHSAEWPSELDDPESLRGKRVGIVGTGASAMQIGPAIADRVGSLTIFQRSPQWIAPNDDYFTTIDDGVHWLMDNIPGYREWYRARLSWIFNDKVYSSLQVDPDWPEPSASINATNHGHRKFYERYLRDQLGDRTDLIEASLPDYPPFGKRMLLDNGWFTMLRKPDVTLVPHGVDALTPSGLVDTNGVEHQLDVIVMATGFHSVRVLYPMDIVGRSGRSTGEIWGEHDARAYLGITVPDFPNFFVMTGPNTGLGHGGSFITILECQVRYIMDALKLMQSENLGAMECRAEVNDRYNEAVDRQHAQMVWTHPAMENWYRNPDGRVVSVLPWRINDYWAMTYRVDPSDFRTEPARSESVPTPTARG
modifications: Rhodococcus erythropolis AN12
  Formation of Caprolactone (ability to convert cyclohexanone to caprolactone): Not Detected
